Numbering of substitutions follows the chain as printed.
T1: FcγRIIa(R) extracellular domain with C-terminal His tag (human, UniProt P12318 34-217)
T1 construct: extracellular domain; R131 allotype; also called 2aR; CD32
T1 sequence: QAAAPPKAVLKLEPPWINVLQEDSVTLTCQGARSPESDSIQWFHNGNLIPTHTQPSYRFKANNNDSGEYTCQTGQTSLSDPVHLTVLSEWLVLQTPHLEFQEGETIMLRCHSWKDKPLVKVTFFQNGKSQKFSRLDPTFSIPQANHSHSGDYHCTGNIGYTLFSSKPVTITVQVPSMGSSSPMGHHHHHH

T2: FcγRIIa(H) extracellular domain with C-terminal His tag (human, UniProt P12318 34-217)
T2 construct: extracellular domain; H131 allotype; also called 2aH; CD32
T2 sequence: T1 sequence with R134H

T3: FcγRIIb extracellular domain with C-terminal His tag (human, UniProt P31994 43-217)
T3 construct: extracellular domain; also called 2b; CD32
T3 sequence: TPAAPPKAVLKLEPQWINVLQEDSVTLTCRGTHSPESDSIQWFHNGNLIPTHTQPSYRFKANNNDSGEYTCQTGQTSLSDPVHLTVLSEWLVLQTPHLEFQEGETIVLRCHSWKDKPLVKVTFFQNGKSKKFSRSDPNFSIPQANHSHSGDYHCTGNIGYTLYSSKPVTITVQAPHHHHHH

B1: GpH7-A5/GpH7-B3 variant P331_19Q/GpL16-k0 (antibody, human IgG1, kappa)
heavy 1: not shown
heavy 2: not shown
light: DIVMTQSPLSLPVTPGEPASISCQASESLVHSNRNTYLHWYLQKPGQSPQLLIYKVSNRFSGVPDRFSGSGSGTDFTLKISRVEAEDVGVYYCSQNTHVPPTFGQGTKVEIERTVAAPSVFIFPPSDEQLKSGTASVVCLLNNFYPREAKVQWKVDNALQSGNSQESVTEQDSKDSTYSLSSTLTLSKADYEKHKVYACEVTHQGLSSPVTKSFNRGEC
notes: heterodimerized IgG1 (He Ab), mutation in one H chain only; also called He Ab
B2: GpH7-A5/GpH7-B3 variant T335_09D/GpL16-k0 (antibody, human IgG1, kappa)
heavy 1: not shown
heavy 2: not shown
light: B1 light
notes: as for B1
B3: GpH7-A5/GpH7-B3 variant S337_12R/GpL16-k0 (antibody, human IgG1, kappa)
heavy 1: not shown
heavy 2: not shown
light: B1 light
notes: as for B1
B4: GpH7-A5/GpH7-B3 variant S337_10E/GpL16-k0 (antibody, human IgG1, kappa)
heavy 1: not shown
heavy 2: not shown
light: B1 light
notes: as for B1
B5: GpH7-A5/GpH7-B3 variant S337_06M/GpL16-k0 (antibody, human IgG1, kappa)
heavy 1: not shown
heavy 2: not shown
light: B1 light
notes: as for B1
B6: GpH7-A5/GpH7-B3 variant T335_05P/GpL16-k0 (antibody, human IgG1, kappa)
heavy 1: not shown
heavy 2: not shown
light: B1 light
notes: as for B1
B7: GpH7-A5/GpH7-B3 variant S337_03V/GpL16-k0 (antibody, human IgG1, kappa)
heavy 1: not shown
heavy 2: not shown
light: B1 light
notes: as for B1
B8: GpH7-A5/GpH7-B3 variant P331_20W/GpL16-k0 (antibody, human IgG1, kappa)
heavy 1: not shown
heavy 2: not shown
light: B1 light
notes: as for B1
B9: GpH7-A5/GpH7-B3 variant S337_09D/GpL16-k0 (antibody, human IgG1, kappa)
heavy 1: not shown
heavy 2: not shown
light: B1 light
notes: as for B1
B10: GpH7-A5/GpH7-B3 variant S337_04F/GpL16-k0 (antibody, human IgG1, kappa)
heavy 1: not shown
heavy 2: not shown
light: B1 light
notes: as for B1
B11: GpH7-A5/GpH7-B3 variant T335_03V/GpL16-k0 (antibody, human IgG1, kappa)
heavy 1: not shown
heavy 2: not shown
light: B1 light
notes: as for B1
B12: GpH7-A5/GpH7-B3 variant T335_04F/GpL16-k0 (antibody, human IgG1, kappa)
heavy 1: not shown
heavy 2: not shown
light: B1 light
notes: as for B1
B13: GpH7-A5/GpH7-B3 variant T335_08L/GpL16-k0 (antibody, human IgG1, kappa)
heavy 1: not shown
heavy 2: not shown
light: B1 light
notes: as for B1
B14: GpH7-A5/GpH7-B3 variant T335_02A/GpL16-k0 (antibody, human IgG1, kappa)
heavy 1: not shown
heavy 2: not shown
light: B1 light
notes: as for B1
B15: GpH7-A5/GpH7-B3 variant T335_01G/GpL16-k0 (antibody, human IgG1, kappa)
heavy 1: not shown
heavy 2: not shown
light: B1 light
notes: as for B1
B16: GpH7-A5/GpH7-B3 variant T335_15Y/GpL16-k0 (antibody, human IgG1, kappa)
heavy 1: not shown
heavy 2: not shown
light: B1 light
notes: as for B1
B17: GpH7-A5/GpH7-B3 variant T335_13S/GpL16-k0 (antibody, human IgG1, kappa)
heavy 1: not shown
heavy 2: not shown
light: B1 light
notes: as for B1
B18: GpH7-A5/GpH7-B3 variant T335_16H/GpL16-k0 (antibody, human IgG1, kappa)
heavy 1: not shown
heavy 2: not shown
light: B1 light
notes: as for B1
B19: GpH7-A5/GpH7-B3 variant T335_06M/GpL16-k0 (antibody, human IgG1, kappa)
heavy 1: not shown
heavy 2: not shown
light: B1 light
notes: as for B1
B20: GpH7-A5/GpH7-B3 variant T335_20W/GpL16-k0 (antibody, human IgG1, kappa)
heavy 1: not shown
heavy 2: not shown
light: B1 light
notes: as for B1
B21: GpH7-A5/GpH7-B3 variant S337_02A/GpL16-k0 (antibody, human IgG1, kappa)
heavy 1: not shown
heavy 2: not shown
light: B1 light
notes: as for B1
B22: GpH7-A5/GpH7-B3 variant T335_12R/GpL16-k0 (antibody, human IgG1, kappa)
heavy 1: not shown
heavy 2: not shown
light: B1 light
notes: as for B1
B23: GpH7-A5/GpH7-B3 variant S337_01G/GpL16-k0 (antibody, human IgG1, kappa)
heavy 1: not shown
heavy 2: not shown
light: B1 light
notes: as for B1
B24: GpH7-A5/GpH7-B3 variant T335_11K/GpL16-k0 (antibody, human IgG1, kappa)
heavy 1: not shown
heavy 2: not shown
light: B1 light
notes: as for B1
B25: GpH7-A5/GpH7-B3 variant T335_18N/GpL16-k0 (antibody, human IgG1, kappa)
heavy 1: not shown
heavy 2: not shown
light: B1 light
notes: as for B1
B26: GpH7-A5/GpH7-B3 variant T335_19Q/GpL16-k0 (antibody, human IgG1, kappa)
heavy 1: not shown
heavy 2: not shown
light: B1 light
notes: as for B1
B27: GpH7-A5/GpH7-B3 variant T335_07I/GpL16-k0 (antibody, human IgG1, kappa)
heavy 1: not shown
heavy 2: not shown
light: B1 light
notes: as for B1
B28: GpH7-A5/GpH7-B3 variant S337_18N/GpL16-k0 (antibody, human IgG1, kappa)
heavy 1: not shown
heavy 2: not shown
light: B1 light
notes: as for B1
B29: GpH7-A5/GpH7-B3 variant T335_10E/GpL16-k0 (antibody, human IgG1, kappa)
heavy 1: not shown
heavy 2: not shown
light: B1 light
notes: as for B1

target: T4, FcγRIa extracellular domain with C-terminal His tag (human, UniProt P12314 16-292); test: SPR; % of GpH7-A5/GpH7-B3/GpL16-k0
T4 construct: extracellular domain; also called 1a; CD64
T4 sequence (P12314 other isoform, or with tags, fused parts or gaps): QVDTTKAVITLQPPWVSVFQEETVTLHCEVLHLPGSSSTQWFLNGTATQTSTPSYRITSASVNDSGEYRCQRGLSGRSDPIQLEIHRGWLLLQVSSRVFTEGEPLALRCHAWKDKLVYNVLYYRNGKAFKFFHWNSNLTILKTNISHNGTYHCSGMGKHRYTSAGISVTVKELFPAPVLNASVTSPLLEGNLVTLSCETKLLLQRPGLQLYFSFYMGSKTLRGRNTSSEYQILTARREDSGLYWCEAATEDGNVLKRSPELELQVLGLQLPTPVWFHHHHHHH

Row | Binder | He/Con 1a [%]
1 | B1 | 108
2 | B2 | 111
3 | B3 | 103
4 | B4 | 103
5 | B5 | 104
6 | B6 | 110
7 | B7 | 103
8 | B8 | 107
9 | B9 | 102
10 | B10 | 103
11 | B11 | 108
12 | B12 | 108
13 | B13 | 118
14 | B14 | 107
15 | B15 | 108
16 | B16 | 111
17 | B17 | 108
18 | B18 | 109
19 | B19 | 110
20 | B20 | 110
21 | B21 | 102
22 | B22 | 116
23 | B23 | 103
24 | B24 | 114
25 | B25 | 109
26 | B26 | 108
27 | B27 | 113
28 | B28 | 102
29 | B29 | 112

target: T1, FcγRIIa(R) extracellular domain with …; test: SPR; % of GpH7-A5/GpH7-B3/GpL16-k0

Row | Binder | He/Con 2aR [%]
30 | B1 | 96.1
31 | B2 | 116
32 | B3 | 109
33 | B4 | 114
34 | B5 | 107
35 | B6 | 109
36 | B7 | 108
37 | B8 | 109
38 | B9 | 117
39 | B10 | 106
40 | B11 | 112
41 | B12 | 113
42 | B13 | 114
43 | B14 | 108
44 | B15 | 110
45 | B16 | 117
46 | B17 | 116
47 | B18 | 114
48 | B19 | 110
49 | B20 | 115
50 | B21 | 107
51 | B22 | 106
52 | B23 | 101
53 | B24 | 105
54 | B25 | 112
55 | B26 | 112
56 | B27 | 115
57 | B28 | 108
58 | B29 | 117

target: T2, FcγRIIa(H) extracellular domain with …; test: SPR; % of GpH7-A5/GpH7-B3/GpL16-k0

Row | Binder | He/Con 2aH [%]
59 | B1 | 91.6
60 | B2 | 111
61 | B3 | 105
62 | B4 | 109
63 | B5 | 104
64 | B6 | 112
65 | B7 | 104
66 | B8 | 85.8
67 | B9 | 114
68 | B10 | 105
69 | B11 | 107
70 | B12 | 107
71 | B13 | 109
72 | B14 | 104
73 | B15 | 107
74 | B16 | 110
75 | B17 | 110
76 | B18 | 109
77 | B19 | 106
78 | B20 | 109
79 | B21 | 103
80 | B22 | 103
81 | B23 | 98.7
82 | B24 | 103
83 | B25 | 107
84 | B26 | 107
85 | B27 | 112
86 | B28 | 106
87 | B29 | 112

target: T3, FcγRIIb extracellular domain with …; test: SPR; % of GpH7-A5/GpH7-B3/GpL16-k0

Row | Binder | He/Con 2b [%]
88 | B1 | 94
89 | B2 | 118
90 | B3 | 108
91 | B4 | 117
92 | B5 | 106
93 | B6 | 109
94 | B7 | 108
95 | B8 | 123
96 | B9 | 124
97 | B10 | 107
98 | B11 | 109
99 | B12 | 112
100 | B13 | 114
101 | B14 | 103
102 | B15 | 106
103 | B16 | 118
104 | B17 | 111
105 | B18 | 112
106 | B19 | 109
107 | B20 | 114
108 | B21 | 106
109 | B22 | 100
110 | B23 | 100
111 | B24 | 99.4
112 | B25 | 111
113 | B26 | 109
114 | B27 | 116
115 | B28 | 113
116 | B29 | 118

target: T5, FcγRIIIa extracellular domain with C-terminal His tag (human, UniProt P08637 17-208); test: SPR; % of GpH7-A5/GpH7-B3/GpL16-k0
T5 construct: extracellular domain; also called 3a; CD16
T5 sequence (P08637 other isoform, or with tags, fused parts or gaps): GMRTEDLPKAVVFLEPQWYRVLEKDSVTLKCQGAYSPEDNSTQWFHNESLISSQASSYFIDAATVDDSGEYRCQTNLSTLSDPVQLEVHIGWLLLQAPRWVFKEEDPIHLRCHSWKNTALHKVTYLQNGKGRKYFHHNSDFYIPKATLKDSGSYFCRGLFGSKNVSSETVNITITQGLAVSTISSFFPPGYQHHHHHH

Row | Binder | He/Con 3a [%]
117 | B1 | 73.9
118 | B2 | 103
119 | B3 | 92.7
120 | B4 | 97.8
121 | B5 | 89.7
122 | B6 | 100
123 | B7 | 87.1
124 | B8 | 71.9
125 | B9 | 102
126 | B10 | 94.4
127 | B11 | 96.3
128 | B12 | 91.7
129 | B13 | 97.8
130 | B14 | 90.9
131 | B15 | 95.1
132 | B16 | 99.7
133 | B17 | 100
134 | B18 | 99.3
135 | B19 | 97
136 | B20 | 97.3
137 | B21 | 92.4
138 | B22 | 93.1
139 | B23 | 95.2
140 | B24 | 91.7
141 | B25 | 94.4
142 | B26 | 97.7
143 | B27 | 102
144 | B28 | 96.9
145 | B29 | 102

Reference: patent publication US20260167699A1 (Chugai, published 2026)
